Two molecules from patent US20250147051A1, “METHOD FOR DETECTING A TAU PROTEIN IN A SALIVA SAMPLE” (GTINVENT LIMITED, priority 2022, published 2025) can be followed below.

In one assay the target is dGA (Homo sapiens, UniProt P10636). Kind of assay: Biacore X100 SPR binding kinetics of anti-tau scAbs (scAb captured via HuCk), analyte dGA. The settings on record: lead scAbs. Put shortly:
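scAbs captured via HuCk domain on anti-HuCk antibody amine-coupled to a CM5 chip, HBS EP+ running buffer, flow cell 1 as reference. Analyte at 0.15625–100 nM (multi-cycle) or 6.25–100 nM (single-cycle), 120 s association, 420 s dissociation, glycine pH 2.0 regeneration. Kinetics and affinity from 1:1 binding fit.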

The subject of assay [1] is hT40. Kind of assay: Binding ELISA with truncated tau proteins and 13mer peptide libraries for epitope mapping of anti-tau scAbs. Details: species or system human. The settings on record: residue numbers of hT40. On the procedure:
A series of binding ELISA was performed using various truncated versions of the tau protein and 13mer peptide libraries spanning the entire hT40 molecule for mapping the epitopes of anti-tau scAbs (Full list of protein antigens used is given in Table 14). In general, ELISA plates were coated with 1 μg/ml hT40 or dGA or dGAE or other truncated versions of the protein and in the case of biotinylated peptides, plates were coated with 5 μg/ml Streptavidin followed by 1 μg/ml biotinylated peptide. The plates were blocked with 2% MPBS and scAb samples added at desired starting concentrations and double diluted across the plate. Binding was detected using anti-Human C Kappa HRP conjugated secondary antibody and the resulting immunoreaction was developed and absorbance values measured as described above.
Selected E specific scAbs and their specific binding to dGAE is shown below (FIG. 8A-E).
Similarly, dGA binding ‘NS’, ‘S’ and ‘M’ group scAbs were subjected to further antigen binding ELISA using shorter tau proteins and biotinylated 13mer peptides as shown below (FIG. 10A-F) and (FIG. 11A-R).
(In an ELISA, binding on a coated surface is turned into a signal by an enzyme label.)

Assay [2] deals with hT40 (Homo sapiens, UniProt P10636). Nature of the assay: Biacore X100 SPR binding kinetics of anti-tau scAbs (scAb captured via HuCk), analyte hT40. The settings on record: lead scAbs, Table 23. On the procedure: Surface plasmon resonance (SPR) is widely regarded as the gold standard for real time measurement of protein-protein interactions such as antibody binding. All SPR experiments were carried out using a Biacore X100 machine and HBS EP+ running buffer (GE Healthcare). A ‘capture’ method was followed for affinity measurements, where an anti-human constant kappa chain (HuCk) antibody was conjugated to the surface of a CM5 sensor chip using an amine coupling kit and scAb molecules were immobilised via their HuCk domain. Amine coupling is a very common approach for immobilising the ligand to the chip surface. […] The capture antibody was diluted 1/100 in 10 mM Sodium acetate buffer pH 5.0 and passed over the activated chip surface for a period of at least 420 s. Final ligand immobilisation levels over 12,000 RU were deemed to be satisfactory.
Following immobilisation, the level of each scAb to be captured was identified using the standard SPR equation with a theoretical RMax of 100 RU. Analyte MW refers to the molecular weight of hT40 or dGA/dGAE molecules, while ligand MW refers to the molecular weight of the scAbs tested. […]
(§1) The single cycle kinetics protocol was similar and utilised the same level of scAb capture. […] Binding responses were analysed in Biacore X100 evaluation software and data fitted to a 1:1 binding model to obtain kinetic and affinity characterisation.
(In SPR one partner is held on a chip, and binding of the other changes the refractive index at the surface.)

The target of another assay is dGAE (Homo sapiens, UniProt P10636). Nature of the assay: Biacore X100 SPR binding kinetics of anti-tau scAbs (scAb captured via HuCk), analyte dGAE. Conditions: lead scAbs. The procedure:
Surface plasmon resonance (SPR) is widely regarded as the gold standard for real time measurement of protein-protein interactions such as antibody binding. All SPR experiments were carried out using a Biacore X100 machine and HBS EP+ running buffer (GE Healthcare). A ‘capture’ method was followed for affinity measurements, where an anti-human constant kappa chain (HuCk) antibody was conjugated to the surface of a CM5 sensor chip using an amine coupling kit and scAb molecules were immobilised via their HuCk domain. Amine coupling is a very common approach for immobilising the ligand to the chip surface. The chip surface has a dextran matrix derivatised with carboxyl groups, which after activation with N-hydroxysuccinimide (NHS) and 1-ethyl-3-(3-dimethylaminopropyl) carbodiimide (EDC), form reactive succinimide esters which allows the covalent capturing of the ligand via any available primary amine groups (e.g. Lysine) on the ligand (in this case anti-HuCk antibody). The capture antibody was diluted 1/100 in 10 mM Sodium acetate buffer pH 5.0 and passed over the activated chip surface for a period of at least 420 s. Final ligand immobilisation levels over 12,000 RU were deemed to be satisfactory.
Following immobilisation, the level of each scAb to be captured was identified using the standard SPR equation with a theoretical RMax of 100 RU. Analyte MW refers to the molecular weight of hT40 or dGA/dGAE molecules, while ligand MW refers to the molecular weight of the scAbs tested. RLis the desired capture level and S refers to the stoichiometric ratio:
The scAb to be tested was added only to flow cell 2 so that flow cell 1 could act as a control to subtract any interaction with the analyte and the chip surface. Both single and multi-cycle runs were utilised using wizards developed in the Biacore X100 control software which are both accepted methods of kinetic analysis (Karlsson, R., et al. Analyzing a kinetic titration series using affinity biosensors (2006) Analytical Biochemistry 349:136-47). The multi-cycle protocol was as follows-Three start-up cycles composed of an initial capture, to the desired level, of the scAb to be tested was performed followed by a 30 s injection of glycine buffer pH 2.0 after each cycle to regenerate the chip surface. The regeneration step removed any captured scAb whilst leaving the capture antibody intact and able to repeat the capture for the next cycle. […]
as §1

Sequence of dGAE (P10636 614-708): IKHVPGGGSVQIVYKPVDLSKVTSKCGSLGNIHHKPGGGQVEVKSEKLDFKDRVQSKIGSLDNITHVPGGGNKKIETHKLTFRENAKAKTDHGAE
Sequence of dGA (P10636 614-707): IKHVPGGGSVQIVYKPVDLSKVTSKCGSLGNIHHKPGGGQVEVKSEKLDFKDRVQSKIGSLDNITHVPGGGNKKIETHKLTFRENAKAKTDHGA
Sequence of hT40 (Homo sapiens, UniProt P10636) (P10636 1-441 isoform P10636-8): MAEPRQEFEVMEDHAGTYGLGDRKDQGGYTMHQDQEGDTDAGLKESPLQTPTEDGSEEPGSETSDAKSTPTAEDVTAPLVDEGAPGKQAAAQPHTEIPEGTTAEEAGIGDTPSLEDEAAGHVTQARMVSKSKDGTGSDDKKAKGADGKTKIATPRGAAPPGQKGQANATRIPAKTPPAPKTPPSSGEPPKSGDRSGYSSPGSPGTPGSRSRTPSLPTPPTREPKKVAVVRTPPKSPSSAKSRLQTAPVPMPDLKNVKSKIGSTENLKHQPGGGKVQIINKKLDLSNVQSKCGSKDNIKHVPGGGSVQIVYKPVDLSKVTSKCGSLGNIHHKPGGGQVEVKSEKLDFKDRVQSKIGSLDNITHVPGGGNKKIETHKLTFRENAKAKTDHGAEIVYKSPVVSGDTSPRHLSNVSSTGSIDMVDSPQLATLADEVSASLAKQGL

B1: CE2: anti-tau clone referred to as CE2 or E1B8, SEQ ID NO: 366 (protein)
scFv: QVQLQESGPSLVKPSQTLSLTCTVSGFSLTNYPVGWVRQAPGKALEWIGNIENDGSANYASALKSRLSITRDTSKNQVSLSLSSATTEDTAVYYCGREFGGSDGYTYFVDIDYWGPGLLVTVSSEGKSSGASGESKVDDQAVLTQPSSVSKSLGQSVSITCSGSSSNVGYGNYVSWFQQVPGSAPKILIYGATSRASGVPDRFSGSRSGNTATLTITSLQAEDEADYYCASYDGSSSGVFGSGTRLTVLG
modifications: CE2/E1B8 amino acid sequence
Take B1: in the assay with dGA (Table 24), the ka is 137000 M⁻¹ s⁻¹. Further, the “dissociation rate constant (kd)” value in the assay with dGA (Table 24, dissociation rate) is 0.00242 s⁻¹. The “Tau proteins/fragments with positive scAb reactivity” value with hT40 [1] was 297-390 (dGA), 297-391 and (dGAE), 313-336.

B2: E2E8: anti-tau clone, SEQ ID NO: 248 (protein)
scFv: QVQLQESGPSLVKPSQTLSLTCTVSGFSLTDRGVAWVRQAPGKALEWVGTMRSGGTIDYNPALKSRLSITRDTSKSQVFLSLSSVTTEDMAMYYCARGYLSGDRYAWGRGLLVTVSSEGKSSGASGESKVDDQAVLTQPSSVSKSLGQSVSIACSGSRSDIGYGNYVSWFQQIPGSAPKLLIYDTNTRASGVPDRFSGARSGNTATLTINSLQAEDEADYYCANIDSSRSHLFGSGTRLTVLG
modifications: E2E8 amino acid sequence
In the case of B2, in the assay with hT40 [2], the “T441 binding (result in words)” value is reported as “No T441 binding”. This molecule also had a ka with dGAE (Table 24) of 477000 M⁻¹ s⁻¹. In the assay with dGAE (Table 24, dissociation rate), the “dissociation rate constant (koff)” value was 0.0001915 s⁻¹.
